Molecular target: GlnA3Mt (Rv1878), gamma-glutamylspermine synthetase of Mycobacterium tuberculosis (Mycobacterium tuberculosis H37Rv) (UniProt O07752)
Test: SEC

GlnA3Mt (Rv1878), gamma-glutamylspermine synthetase of Mycobacterium tuberculosis (from UniProt O07752 1-450) (enzyme)
stoichiometry N: 12
